The target of test [1] is Human β-Klotho (KLB) on 293/KLB cells (human) (UniProt Q86Z14).
Test [2] shares this target. This is another data set of the same source.

Sequence of Human β-Klotho (KLB) on 293/KLB cells (human) (Q86Z14 whole entry): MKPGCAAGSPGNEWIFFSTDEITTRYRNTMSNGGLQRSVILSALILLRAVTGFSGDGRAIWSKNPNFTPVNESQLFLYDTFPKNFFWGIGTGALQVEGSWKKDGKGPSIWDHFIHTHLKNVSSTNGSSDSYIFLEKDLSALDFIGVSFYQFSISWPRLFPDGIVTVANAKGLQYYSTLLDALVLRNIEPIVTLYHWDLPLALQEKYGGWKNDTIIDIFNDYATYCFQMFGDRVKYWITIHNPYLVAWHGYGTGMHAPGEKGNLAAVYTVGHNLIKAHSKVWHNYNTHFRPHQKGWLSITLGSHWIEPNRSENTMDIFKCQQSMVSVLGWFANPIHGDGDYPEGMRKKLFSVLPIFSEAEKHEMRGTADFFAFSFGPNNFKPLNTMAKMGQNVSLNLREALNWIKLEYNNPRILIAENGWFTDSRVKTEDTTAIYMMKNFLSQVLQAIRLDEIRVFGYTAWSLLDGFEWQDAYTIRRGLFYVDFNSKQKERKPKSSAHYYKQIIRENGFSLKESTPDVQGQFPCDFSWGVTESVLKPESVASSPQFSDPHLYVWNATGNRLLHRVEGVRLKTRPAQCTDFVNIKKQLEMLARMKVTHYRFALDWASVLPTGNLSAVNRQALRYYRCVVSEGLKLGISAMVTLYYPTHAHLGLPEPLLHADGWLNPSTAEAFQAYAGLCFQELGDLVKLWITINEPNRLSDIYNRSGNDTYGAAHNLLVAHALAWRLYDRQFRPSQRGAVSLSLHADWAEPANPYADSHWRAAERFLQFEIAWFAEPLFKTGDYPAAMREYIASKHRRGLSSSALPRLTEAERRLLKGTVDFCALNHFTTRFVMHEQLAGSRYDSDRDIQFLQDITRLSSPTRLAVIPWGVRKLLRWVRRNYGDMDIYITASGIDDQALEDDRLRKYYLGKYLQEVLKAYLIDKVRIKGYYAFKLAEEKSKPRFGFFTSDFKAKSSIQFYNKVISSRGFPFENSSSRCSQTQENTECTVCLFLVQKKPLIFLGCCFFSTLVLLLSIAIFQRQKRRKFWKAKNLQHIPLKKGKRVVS
Sequence of FGF21-19A hybrid (Q9NSA1 other isoform, or with tags, fused parts or gaps): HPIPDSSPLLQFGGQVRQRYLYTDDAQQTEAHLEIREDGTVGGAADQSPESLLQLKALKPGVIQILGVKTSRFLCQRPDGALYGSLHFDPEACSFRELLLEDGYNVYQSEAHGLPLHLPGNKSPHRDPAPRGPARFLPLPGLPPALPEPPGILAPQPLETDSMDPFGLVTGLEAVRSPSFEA
Sequence of 19C26,A^26 (O95750 other isoform, or with tags, fused parts or gaps): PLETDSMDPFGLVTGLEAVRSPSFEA

In turn, “19C26,A^26 (from UniProt O95750 191-216) (peptide)” had a potency of inhibition of FGF21 and FGF19 pERK signalling in 293/KLB cells, relative to 19C26, 21C25 and FGF21^18−181 in test [1] above 20 fold. Turning to “FGF21-19A hybrid (from UniProt Q9NSA1 29-184; O95750 191-216) (ligand)”, the pERK agonism in 293/KLB and Hep3B cells, potency relative to native FGF21 in test [2] is 10 fold.
